{"source": "paper PMC4558366", "about": "(Cell reports, 2015)", "molecular_target": "T1, UHRF1_(647-687) (human, UniProt Q96T88-2 647-687)", "T1 chain (looked up)": "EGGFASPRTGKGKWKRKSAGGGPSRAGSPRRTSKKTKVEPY", "experiment": "ITC"}
{"binder": "USP7 UBL1-2 E736A (domain or fragment) EAHLYMQVQIVAEDQFCGHQGNDMYDEEKVKYTVFKVLKNSSLAEFVQSLSQTMGFPQDQIRLWPMQARSNGTKRPAMLDNEADGNKTMIELSDNENPWTIFLETVDPELAASGATLPKFDKDHDVMLFLKMYDPKTRSLNYCGHIYTPISCKIRDLLPVMCDRAGFIQDTSLILYAEVKPNLTERIQDYDVSLDKALDELMDGDIIVFQKDDPENDNSELPTAKEYFRDLYH", "values": [{"measurement": "fold reduction of binding affinity against wild type", "result": 4, "unit": "fold"}]}
